# “Also recorded” adds a separate entry of the source.
# T1: Uch-L3 (Homo sapiens, UniProt P15374)
# T1 sequence (P15374 1-230): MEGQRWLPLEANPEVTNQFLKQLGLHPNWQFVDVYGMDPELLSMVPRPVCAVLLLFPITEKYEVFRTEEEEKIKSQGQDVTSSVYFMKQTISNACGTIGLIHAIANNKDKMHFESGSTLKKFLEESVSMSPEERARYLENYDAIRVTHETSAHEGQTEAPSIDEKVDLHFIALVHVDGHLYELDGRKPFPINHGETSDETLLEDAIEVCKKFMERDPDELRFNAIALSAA
# T2: Uch-L1 (Mus musculus, UniProt Q9R0P9)
# T2 construct: hippocampal tissue was treated with tissue protein extraction reagent; from tissue; host or cells: mouse hippocampal slices (C57/BL6 or APP/PS1 and WT littermates)
# T2 sequence (Q9R0P9 1-220): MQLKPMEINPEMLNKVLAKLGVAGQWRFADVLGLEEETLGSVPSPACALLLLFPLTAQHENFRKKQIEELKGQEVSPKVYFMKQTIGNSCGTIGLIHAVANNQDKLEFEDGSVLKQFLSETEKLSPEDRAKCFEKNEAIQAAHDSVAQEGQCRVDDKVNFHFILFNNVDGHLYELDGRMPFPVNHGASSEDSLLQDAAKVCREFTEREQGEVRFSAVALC
# B1: TAT-HA-Uch-L1: fusion protein: 11-amino acid transduction domain of HIV-transactivator protein (TAT) fused with an HA tag and human Uch-L1 (protein)
# chain: MQLKPMEINPEMLNKVLSRLGVAGQWRFVDVLGLEEESLGSVPAPACALLLLFPLTAQHENFRKKQIEELKGQEVSPKVYFMKQTIGNSCGTIGLIHAVANNQDKLGFEDGSVLKQFLSETEKMSPEDRAKCFEKNEAIQAAHDAVAQEGQCRVDDKVNFHFILFNNVDGHLYELDGRMPFPVNHGASSEDTLLKDAAKVCREFTEREQGEVRFSAVALCKAA
# modifications: left off: small tags and cut ends
# How the values were obtained:
# Uch-L3 = target: T1, Uch-L3; experiment: Nedd8-AMC hydrolysis by Uch-L3; format: biochemical; conditions: 5 μM LDN, 20 nM Uch-L3, Nedd8-AMC 400 nM
# Procedure: Measurement of Hydrolase Activity: The hydrolase assay was performed as previously described (Nishikawa et al., 2003) with slight modifications. Briefly, hippocampal tissue was treated with tissue protein extraction reagent (T-PER; Pierce) containing freshly added EDTA-free protease inhibitors. Homogenate was centrifuged at 10,000 rpm for 5 min. Protein concentration was measured in the supernatant using the BCA protein assay reagent. In some experiments hydrolysis was initiated by adding 10 μl of 20 nM Uch-L1 or Uch-L3 (Boston Biochem). The hydrolase assay was performed using fluorogenic ubiquitin-7-amino-4-methylcoumarin (ubiquitin-AMC) (Boston Biochem) as a substrate. The substrate was diluted in assay buffer (50 mM Tris-HCL, 0.5 mM EDTA, 5 mM dithiothreitol and 0.1 mg/ml ovalbumin, pH 7.6). […] The reaction was monitored using a fluorescence spectrophotometer (CytoFluor Series 4000, ABI Inc) at 25° C. The free AMC fluorophore was excited at 380 nm and measured at 460 nm. Hydrolase activity was expressed as relative fluorescence intensity/min (Dang et al., 1998). In some experiments, hydrolysis was also measured on the soluble and insoluble fractions (FIG. 28D). In a group of experiments hydrolysis was measured by mixing ubiquitin-AMC with 20 nM TAT fusion proteins (FIG. 27C). […]
# Uch-L1 [1] = target: T2, Uch-L1; experiment: Hydrolase (ubiquitin-AMC) assay on hippocampi of injected mice; format: in vivo
# Procedure: (§1) Measurement of Hydrolase Activity: The hydrolase assay was performed as previously described (Nishikawa et al., 2003) with slight modifications. Briefly, hippocampal tissue was treated with tissue protein extraction reagent (T-PER; Pierce) containing freshly added EDTA-free protease inhibitors. Homogenate was centrifuged at 10,000 rpm for 5 min. Protein concentration was measured in the supernatant using the BCA protein assay reagent. In some experiments hydrolysis was initiated by adding 10 μl of 20 nM Uch-L1 or Uch-L3 (Boston Biochem). The hydrolase assay was performed using fluorogenic ubiquitin-7-amino-4-methylcoumarin (ubiquitin-AMC) (Boston Biochem) as a substrate. The substrate was diluted in assay buffer (50 mM Tris-HCL, 0.5 mM EDTA, 5 mM dithiothreitol and 0.1 mg/ml ovalbumin, pH 7.6). Each reaction mixture containing 400 nM substrate and 100 μg enzyme sample was incubated for 5 min at room temperature. The reaction was monitored using a fluorescence spectrophotometer (CytoFluor Series 4000, ABI Inc) at 25° C. The free AMC fluorophore was excited at 380 nm and measured at 460 nm. Hydrolase activity was expressed as relative fluorescence intensity/min (Dang et al., 1998). In some experiments, hydrolysis was also measured on the soluble and insoluble fractions (FIG. 28D). In a group of experiments hydrolysis was measured by mixing ubiquitin-AMC with 20 nM TAT fusion proteins (FIG. 27C). In other experiments the substrate was Nedd8-AMC (Boston Biochem). LDN-57444 was purchased from Calbiochem.
# Uch-L1 [2] = experiment: as above; format: in vivo, mouse; conditions: 0.02-0.04 g/kg, i.p.
# Procedure: as §1
# PKA = PKA kinase activity in hippocampal slices; format: cell-based, mouse
# PKA RIIα = PKA RIIα levels in hippocampal slices (Western blot); format: cell-based, mouse; conditions: for Aβ-induced increase in PKA RIIα levels (words): fusion protein 20 nM 1 hr, Aβ 200 nM 20 min
# Procedure: (§2) Western Blotting: Protein levels were assessed using standard procedures. Protein extraction was performed using buffer with and without detergent. For the extraction of protein using detergent, hippocampal tissues and cultured hippocampal neurons (5 DIV) were homogenized in RIPA buffer (50 mM Tris-HCl pH 7.4, 1% Triton X-100, 1% sodium deoxycholate, 0.1% SDS, 150 mM sodium chloride, 10 mM sodium fluoride, 30 mM sodium pyrophosphate, 50 mM sodium orthovanadate) containing 1× complete protease inhibitor (Roche) and 1 mM phenylmethylsulfonyl fluoride (PMSF). For extraction of proteins without detergent, hippocampal extracts were homogenized with disposable dounce homogenizers in buffer A, containing 10 mM HEPES pH 7.3, 300 mM sucrose, protease 1× complete protease inhibitor (Roche) and PMSF. After centrifugation at 10,000×g supernatant proteins were resolved on a 8% or 4-20% gradient Tris-Glycine gel, transferred onto PVDF or nitrocellulose membrane and blocked in 5% skim milk in PBS-Tween 0.1% (PBS-T). Membranes were probed with primary antibodies, and after washing with PBS-T incubated with an appropriate HRP-conjugated secondary antibody. The following antibodies were used: mouse monoclonal anti-ubiquitin (Chemicon), rabbit polyclonal anti-pCREB (Upstate Biotech.), rabbit polyclonal anti-PKA-RIIα (Santa Cruz Biotech. Inc), mouse monoclonal anti-Uch-L1 (Novocastra), monoclonal mouse anti-HA (Santa Cruz Biotech. Inc), and anti-PKA IIα. Detection was performed using HRP-conjugated secondary antibodies (Pierce, Rockford, Ill.). To control loading and transfer, protein immunoreactivities were normalized against total extracellular signal-regulated protein kinases (ERK1/2) levels with a rabbit analyzed using a rabbit polyclonal anti-ERK1/2 antibody (Cell Signaling Technology, Inc). NIH IMAGE was used to analyze the scanned blots and quantify the intensity of the protein signals.
# cAMP = experiment: Intracellular cAMP enzyme immunoassay; format: cell-based, rat; conditions: fusion protein 100 nM 24 hrs, Aβ
# Procedure: Intracellular cAMP Enzyme Immunoassay. Hippocampal neurons from E18 rats were dissociated and plated on poly-L-lysine coated 6-well plates in minimum essential medium supplemented with N-2, glucose, albumin, pyruvic acid, antibiotics and antimycotics. […] After 24 hours, cell lysates were obtained and intracellular cAMP levels were measured using cAMP Biotrak Enzymeimmunoassay (EIA) System (Amersham) in accordance with manufacturer's instructions.
# phospho-CREB = experiment: Phospho-CREB immunofluorescence in hippocampal slices; format: cell-based, mouse
# hippocampal slices = format: cell-based, mouse
# Procedure: as §2, with “Membranes were probed with primary antibodies, and after washing with PBS-T incubated with an appropriate HRP-conjugated secondary antibody. The following antibodies were used: mouse monoclonal anti-ubiquitin (Chemicon), rabbit polyclonal anti-pCREB (Upstate Biotech.), rabbit polyclonal anti-PKA-RIIα (Santa Cruz Biotech. Inc), mouse monoclonal anti-Uch-L1 (Novocastra), monoclonal mouse anti-HA (Santa Cruz Biotech. Inc), and anti-PKA IIα. Detection was performed using HRP-conjugated secondary antibodies (Pierce, Rockford, Ill.).” left out
# [3] = 0.4 mg/kg, sacrificed 4 hrs after injection
# [4] = listed as TAT-Uch-L1 fusion protein
# [5] = listed as Uch-L1 fusion protein
molecule,measurement,setting,value
"CC(=O)O/N=C1\C(=O)N(Cc2cc(Cl)ccc2Cl)c2ccc(Cl)cc21 [LDN-57444, reference compound]",Uch-L3 hydrolase activity (Nedd8-AMC hydrolysis),Uch-L3,does not affect Uch-L3 hydrolase activity
same,Uch-L3 hydrolase activity (Nedd8-AMC hydrolysis),Uch-L3; listed as LDN,no reduction in hydrolysis of Nedd8-AMC
same,Ubiquitin-C-Terminal hydrolase activity in hippocampi,Uch-L1 [1]; [3],decreased
same,Uch-L1 activity,Uch-L1 [1]; [3],65 % of vehicle injected controls
same,recovery of hydrolase activity,Uch-L1 [1]; single i.p. injection 0.4 mg/kg,≤ 8 h
same,maximal inhibition of hydrolase activity,"Uch-L1 [1]; single i.p. injection 0.4 mg/kg, 30 minutes post-injection",~40 % of control
B1,total Uch activity in APP/PS1 mice,Uch-L1 [2],returned to control levels; also recorded: re-established normal total Uch activity
same,total Uch activity in WT mice,Uch-L1 [2],increased above control level; also recorded: increased total Uch activity
same,PKA activity,"PKA; 20 nM TAT-HA-Uch-L1 1 hr, then 200 nM Aβ plus TAT-HA-Uch-L1 20 min",89.21±3.21%
same,PKA activity in Aβ-treated slices,"PKA; fusion protein 20 nM 1 hr pre-incubation, 200 nM Aβ 20 min",blocked the reduction; also recorded: increased levels of kinase activity
same,IIα regulatory subunit levels,PKA RIIα; 20 nM TAT-HA-Uch-L1 1 hr pretreatment plus Aβ42,121.03±14.10 % of control
same,Aβ-induced increase in PKA RIIα levels (words),PKA RIIα,blocked by pretreatment; also recorded: re-established normal levels of regulatory subunit; also recorded: re-established normal levels of RIIα
same,Aβ-induced increase in PKA RIIα levels (words),PKA RIIα; [4],blocks the increase
same,Aβ-induced increase in PKA RIIα levels (words),PKA RIIα; [5],blocked
same,cAMP levels in Aβ-treated cultured hippocampal neurons (words),cAMP,remained low; also recorded: did not affect the decrease in cAMP levels; also recorded: does not rescue the decrease in cAMP levels
same,cAMP levels in Aβ-treated cultured hippocampal neurons (words),cAMP; [4],does not re-establish normal cAMP levels
same,cAMP levels in Aβ-treated cultured hippocampal neurons (words),cAMP; [5],does not rescue the decrease in cAMP levels
same,tetanus-induced increase in phospho-CREB in Aβ-treated slices,"phospho-CREB; fusion protein 20 nM 1 hr, then 200 nM Aβ plus fusion protein 20 min",significant protection against Aβ42 effects on phospho-CREB; also recorded: reversed; also recorded: re-established the tetanus-induced increase in CREB phosphorylation; also recorded: re-established the tetanus-induced increase in phospho-CREB
same,tetanus-induced increase in phospho-CREB (words),phospho-CREB; fusion protein alone,did not affect the increase; also recorded: had no effect
same,phospho-CREB immunofluorescence without theta-burst,phospho-CREB; no tetanus,did not modify immunofluorescence; also recorded: neither Aβ42 alone nor TAT-HA-Uch-L1 alone nor TAT-HA-Uch-L1 paired with Aβ42 induced changes
same,localisation in soluble/insoluble protein fractions,hippocampal slices,localized to the soluble fraction
